In article PMC6588460:

Target: AKAP95 (human (endogenous in HEK293T)) (UniProt O43823)
Experiment: proximity ligation

Chain of UniProt O43823 (O43823 whole entry): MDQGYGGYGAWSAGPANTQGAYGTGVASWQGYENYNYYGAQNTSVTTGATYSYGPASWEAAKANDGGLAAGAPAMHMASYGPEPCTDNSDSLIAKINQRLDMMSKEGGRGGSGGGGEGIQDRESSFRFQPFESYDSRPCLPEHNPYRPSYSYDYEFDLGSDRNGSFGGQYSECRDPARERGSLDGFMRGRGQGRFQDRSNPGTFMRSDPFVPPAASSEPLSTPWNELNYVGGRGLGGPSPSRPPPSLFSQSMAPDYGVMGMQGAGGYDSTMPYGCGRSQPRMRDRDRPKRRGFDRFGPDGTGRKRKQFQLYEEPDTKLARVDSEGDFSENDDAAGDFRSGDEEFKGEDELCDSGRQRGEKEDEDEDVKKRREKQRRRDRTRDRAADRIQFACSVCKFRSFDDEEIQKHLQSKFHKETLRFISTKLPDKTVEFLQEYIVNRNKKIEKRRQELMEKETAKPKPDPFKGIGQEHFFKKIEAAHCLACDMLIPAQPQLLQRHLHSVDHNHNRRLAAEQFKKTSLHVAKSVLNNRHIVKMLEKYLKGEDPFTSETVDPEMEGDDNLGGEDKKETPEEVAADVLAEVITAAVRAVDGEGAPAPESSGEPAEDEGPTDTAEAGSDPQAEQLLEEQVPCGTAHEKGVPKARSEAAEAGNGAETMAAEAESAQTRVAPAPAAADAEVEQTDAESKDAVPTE

- PLA dots per nuclei (dots per nuclei): 3.8
Substance: PDE4D5 (enzyme)
